Source: paper PMC6780499, “Characterization, Recombinant Production and Structure-Function Analysis of NvCI, A Picomolar Metallocarboxypeptidase Inhibitor from the Marine Snail Nerita versicolor” (Marine Drugs, 2019)
No end group written: not given here.

T1: bTAFI (Bos taurus, UniProt Q2KIG3)
T1 sequence (Q2KIG3 115-423): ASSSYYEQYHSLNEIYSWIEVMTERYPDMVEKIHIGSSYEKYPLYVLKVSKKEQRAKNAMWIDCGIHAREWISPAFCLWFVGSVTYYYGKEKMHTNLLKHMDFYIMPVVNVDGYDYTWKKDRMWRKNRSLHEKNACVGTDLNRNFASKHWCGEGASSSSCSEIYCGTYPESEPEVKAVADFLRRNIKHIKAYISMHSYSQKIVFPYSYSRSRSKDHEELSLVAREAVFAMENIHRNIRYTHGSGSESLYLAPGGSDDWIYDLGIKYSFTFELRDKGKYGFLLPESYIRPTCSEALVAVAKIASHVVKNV

T2: hTAFI (Homo sapiens, UniProt Q96IY4)
T2 sequence (Q96IY4 115-423): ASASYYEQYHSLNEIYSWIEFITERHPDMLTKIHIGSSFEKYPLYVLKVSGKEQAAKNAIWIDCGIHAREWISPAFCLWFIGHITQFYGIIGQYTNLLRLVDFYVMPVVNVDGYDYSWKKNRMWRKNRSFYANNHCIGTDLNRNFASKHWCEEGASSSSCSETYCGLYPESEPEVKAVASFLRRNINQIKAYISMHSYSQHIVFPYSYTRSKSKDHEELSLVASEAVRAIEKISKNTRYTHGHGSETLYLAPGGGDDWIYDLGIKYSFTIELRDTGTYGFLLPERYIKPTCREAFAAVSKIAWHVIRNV

T3: hCPB (Homo sapiens (Human), UniProt P15086)
T3 chain: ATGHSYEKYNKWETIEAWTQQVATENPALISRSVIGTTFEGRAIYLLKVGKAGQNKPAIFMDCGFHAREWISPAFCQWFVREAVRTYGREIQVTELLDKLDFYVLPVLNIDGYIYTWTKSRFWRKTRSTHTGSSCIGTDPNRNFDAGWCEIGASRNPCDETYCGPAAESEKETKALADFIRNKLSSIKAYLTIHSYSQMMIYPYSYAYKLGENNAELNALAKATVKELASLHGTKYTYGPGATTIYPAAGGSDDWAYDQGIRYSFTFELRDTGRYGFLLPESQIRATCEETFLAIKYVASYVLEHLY

T4: hCPA2 (Homo sapiens (Human), UniProt P48052)
T4 chain: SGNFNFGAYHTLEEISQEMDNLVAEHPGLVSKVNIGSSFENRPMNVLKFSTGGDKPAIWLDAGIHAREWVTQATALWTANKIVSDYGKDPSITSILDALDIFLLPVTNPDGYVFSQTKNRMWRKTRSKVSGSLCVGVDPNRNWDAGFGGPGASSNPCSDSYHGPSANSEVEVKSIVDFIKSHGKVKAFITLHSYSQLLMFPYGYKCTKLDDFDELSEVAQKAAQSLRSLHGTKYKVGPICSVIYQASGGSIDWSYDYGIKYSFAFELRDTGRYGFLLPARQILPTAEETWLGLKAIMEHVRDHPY


Legend:
[1] = biological target: T1, bTAFI; assay: Ki determination, tight-binding inhibition of metallocarboxypeptidase; format: biochemical, bovine; settings: tight-binding equation fit; substrate AAFA 0.1mM; enzyme-inhibitor mixture not preincubated; 37 °C; means (n = 3) ± SD
Protocol: (§1) Inhibitory activities against CPA- and CPB-type forms (bovine and human variants of CPA1, CPA2, CPA4, CPB1, and TAFI) were assayed for all extracts, subject to the experimental conditions that enzyme (E), substrate (S) and inhibitor (I) concentrations as well as the [I]/[E] ratio and preincubation time followed the requirements for tight-binding inhibitor assays. Similar approaches were followed to measure the activities of proteases of different catalytic types, like pepsin, papain, trypsin and subtilisin [45, 46, 47, 48]. All assays were performed in triplicate at 25 °C in a multiplexed manner. For 96-well assays an iEMS spectrophotometer reader/dispenser FM (Labsystems, Finland) was used with a final reaction volume of 250 μL. […] The reactions were followed at 5 s intervals for 5 min and recorded as initial velocities. […]
(§2) The Ki values of natural and recombinant NvCI against bCPA1, hCPA1, hCPA2, rat CPA3, hCPA4, hCPB1, bTAFI, hTAFI, hCPD and hCPZ were determined by measuring the enzymatic residual activity (Vi/V0 = a) at different inhibitor concentrations and using a fixed enzyme and substrate concentrations as described above, where vi and v0 are the fraction of enzymatic activity in the presence and absence of inhibitor, respectively, in terms of initial velocities. […]

[2] = biological target: T2, hTAFI; assay: as above; format: biochemical; settings: tight-binding equation fit; substrate AAFA 0.1mM; enzyme-inhibitor mixture not preincubated; 37 °C; means (n = 3) ± SD
Protocol: as §1, §2

[3] = Folding state and stability by CD at different pH and temperature; format: physicochemical; settings: pH 2 to 10, 25 °C to 90 °C, 0.05–0.06 mg/ml
Protocol: The folding state and stability of NvCI was investigated on the natural and recombinant forms by CD. The proteins, either in 0.1% TFA (v/v) or 20mM sodium phosphate (pH 2.0, 6.5 or 8.0) were analyzed at 0.05–0.06 mg/ml, from 25 to 90 °C in a Jasco J-710 spectropolarimeter (Pfugnstadt, Germany) in the 190–320nm range. Additional analyses were made under folding conditions (20mM sodium phosphate, pH 8.0) in the absence and presence of reducing reagent (1 or 20 mM DTT), a redox-pair (1mM Cys + 0.5mM cystine), and either absence or presence of denaturant (8 M urea). Complementary ^1H-NMR experiments were performed in a 500MHz NMR (Bruker Advance) on rNvCI in 20 mM sodium phosphate (pH 2.0 and 6.5), in 90% ^1H2O + 10% D2O, at 298 K. DQF-COSY, NOESY, TOCSY and HSQC spectra were obtained in a TCI cryoprobe of 5mm and used for provisional backbone assignment.

[4] = biological target: T3, hCPB; assay: Ki, residual activity
[5] = biological target: T4, hCPA2; assay: Ki, residual activity

Ki [1]	Ki [2]	Kd [4]	Kd [5]	Molecule	stability by CD spectra [3]
0.121 ± 0.0201 nM	0.393 ± 0.0219 nM	–	–	NvCI: 53-residue, three-disulphide proteinaceous metallocarboxypeptidase inhibitor from the marine snail Nerita versicolor; major isoform; UniProt P86912 (FHVPDDRPCINPGRCPLVPDATCTFVCKAADNDFGYECQHVWTFEGQRVGCYA; disulfide (positions not given here); also: three disulphides, pairing not given here; UniProt P86912 1-53, looked up)	great stability and capacity to recover its spectral properties when returned to room conditions
–	–	0.549 nM	2.94 nM	NvCI (protein, disulfide (positions not given here); not fully specified (bridges); ends not checked) FHVPDDRPCINPGRCPLVPDATCTFVCKAADNDFGYECQHVWTFEGQRVGCYA	–
